In paper PMC6908968 (Cell, 2019):

T1: thermolysin-cleaved EBOV GP on Jurkat-GP cells (cleaved GP) (Zaire ebolavirus, Makona (GP1 core …, strain))
T1 chain 1: not shown
T1 chain 2: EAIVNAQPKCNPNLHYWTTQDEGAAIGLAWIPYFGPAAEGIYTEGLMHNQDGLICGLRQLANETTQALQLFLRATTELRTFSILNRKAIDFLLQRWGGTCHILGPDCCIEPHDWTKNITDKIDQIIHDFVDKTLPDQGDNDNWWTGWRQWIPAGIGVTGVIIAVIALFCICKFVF


Key:
[1] = target: EBOV GP ectodomain residues 1-636 (GPec) (Zaire ebolavirus, strain  …, UniProt Q05320)
[2] = target: T1, thermolysin-cleaved EBOV GP on …

Binder	binding result [1]	binding result [2]
5.6.c3168 (antibody, V domains shown) VH: EVQLVESGGGLVQPGGSLRLSCAASGFTLSNYDMNWVRQAPGKRLEWVSYISSSGSTTYYVDSVKGRFTISRDNAKNSLYLQMNSLRAEDTAVYYCARGHNNWFLYFDSWGQGTLVTVSS VL: EILMTQSPATLSVSPGERATLSCRASQSVSSNLAWYQQVPGQAPRLLISDASTRATGIPARFSGSGSGTEFTLTINSLQSEDFAVYYCQQYNDWPGTFGQGTKLEIK	binds	binds
5.6.c3250 (antibody, V domains shown) VH: QVQLVESGGGLVKPGGSLRLSCAASGFTFSDYDMSWIRQAPGKGLEWISYISSSGTTIYDADSVKGRFTISRDNAKNSLSLQVNSLRAEDTAVYYCARNVEQIVGATLDYWGQGTLVTVSS VL: EIVLTQSPATLSLSPGERATLSCRASQSISSFLAWYQQKLGQAPRLLIFDASNRATGIPARFSGSGSGTDFTLTISSLEPEDFAVYYCHHWTFGQGTKVEIK	binds	binds
5.6.c3479 (antibody, V domains shown) VH: QVHLVESGGGLVKPGGSLRLSCSVSGFAFSDYYMTWIRQAPGKGLEWVSYISGDGGSIYYADSVKGRFTISRDNAKKSLYLQLNSLRADDTAVYYCARDRCDRDQLLCYYYYGMDVWGQGTTVTVSS VL: QSVLTQPPSVSAAPGQKVTISCSGSSSNIGNNYVSWYQQLPGTAPKLLIYDNNKRPSGIPDRFSGSKSGTSATLDITGLQTGDEADYYCGTWDNSLIAGVFGGGTKLTVL	binds	binds
5.6.c3295 (antibody, V domains shown) VH: EVQLVESGGDLVQPGGSLRLSCAASGFTVNANYLGWVRQTPGKGLEWVSLIYSGSGSTYYADSVKGRFTLSRDSSKNTLFLHMNSLRPEDTAVYYCARAGGCGGDCYSYYFDYWGRGTLVTVSS VL: DIQMTQSPSTLSASVGDRVTITCRASQSISRWLAWYQQKPGKAPKLLIYRASSLQNGVPSRFSGSGSGTEFTLTISGLQPDDFGIYYCQEYSSRYTFGQGTQLEIK	binds	binds
5.6.c3191 (antibody, V domains shown) VH: QVQLAQSGAEVKKPGASVKVSCKSSGYNFTTHGFNWVRQVPGQGLEWMGWISAYNADTNYAQKFQGRLTLTTETSSNTAYMELRSLTSDDTAVYYCARGEEYSTLYFYGMDVWGQGTTVTVSS VL: DIQMTQSPSSVSASVGDRVTITCRASQGISIWLAWYQQKPGKAPKLLIYGASTLQSGVPSRFSGSGSGADYTLTINSLQPEDFATYFCQQAHSFPYTFGQGTKLEIR	binds	binds
5.6.c3397 (antibody, V domains shown) VH: QVQLQESGPGLVKPSETLSLTCTVSGGSISTYYWSWIRQTPGKGLECIGYINYFGSTNYNPSLKSRVTISIDTSKNQFSLKLSSVTAADTAVYYCARHYGVGTYSGGWFDPWGQGTLVTVSS VL: DIQMTQSPSSLSASVGDRVTVTCRASQRINSFLNWYQQKPGKAPKLLIYAASSLQSGVPSRFSGTGSGTDFTLTISSLQPEDFATYYCQQSYSSPRTFGQGTKVEIR	binds	binds
5.6.c3362 (antibody, V domains shown) VH: QLQLQQSGPGLVKPSETLSLTCNVSGGSISSSSTYSWGWIRQPPGKGLEWIGNIYYSGSTYYNPSLKSRVTISVDTSKNQFSLKLSSVTAADTAVYYCARSFRGPTGAFYYYSYAMDVWGRGTTVTVSS VL: SSELTQDPAVSVALGQTVRITCQGDSLRTYYASWYQQKPGQAPVLVIYGKKNRPSGIPDRFSGSSSGNTASLTITGAQAEDEADYYCNSQDSSGDLVLFGGGTKVTAL	binds	binds
5.6.c3508 (antibody, V domains shown) VH: QVQLEQSGAEVKKPGASVKVSCQAAGYTFTSYGISWVRQAPGQGLEWMGWISADNGNTKYAQNLQARVTMTTDTSTSTAYMEVRRLRSDDTAVYYCARDSGDLSSLLYYGMDVWGQGTTVTVSS VL: DIQLTQSPSFLSASVGDRVTITCRASQGISSYLAWYQQKPGKAPKLLIDAASTLQSGVPSRISGSRSGTEYTLTISSLQPEDFATYYCQQLNNFPFTFGPGTKVDIK	binds	binds
5.6.c3221 (antibody, V domains shown) VH: QEELVESGGGVVQPGRSLRLSCAASTFTFSIYAMHWVRQAPGKGLEWVAVISYDGSNRYYADSVKGRFTISRDNSKNTVYLQMNSLRAEDTAVYFCAKDLGSNGWYYFDSWGQGTLVTVSS VL: EIVLTQSPGTLSLSPGERATLSCRASQSVSSRYLAWYQQKPGQAPRLLIYGVSSRATGVPDRFSGSGSGTDFTLTISRLEPEDFAVYYCQHYGSSPWRPFGQGTKLEIK	binds	binds
5.6.c3412 (antibody, V domains shown) VH: QIQLVESGGGVVQPVRSLRLTCAASGFTFSQYGMHWVRQAPGKGLEWVAVISYDGTQKYYSDSVKGRFTISRDNAKNTLSLQMNGLRAEDTAVYYCAKGFLERNFDLWSGSYSDSGWRGPYYGMDFWGQGTTVIVSS VL: QTVVTQEPSFSVSPGGTVTITCALSSGSVSASLYPSWYQQTPGQAPRTLIYSTNTRSSGVPDRFSGSILGNKAALTITGAQADDESDYYCVLFMSSGIYVFGTGTKVTVL	binds	binds
5.6.c3166 (antibody, V domains shown) VH: EVHLVESGGGLVQPGGSLRLSCAASGFSFNTHWMNWVRQAPGKGLEWVANIKQNGGEKYYVDSVKGRFTISRDNAKNTLFLQMNSLRGDDTAVYYCARGPPPAAPEDLFYNYTMDVWGQGTTVTVSS VL: EIVMTQSPATLSVSPGERATLSCRASQSVINHLAWYQQKPGQTPRLLIYGASTRATGIPARFSGSGSGTEFTLTISSLQSEDFAVYFCQQYNTWPPFTFGGGTKVEIK	binds	binds
5.6.c3113 (antibody, V domains shown) VH: EVQMVESGGGLAQPGGSLRLSCAASGFTFSSYEMSWVRQAPGKGLEWVSYISTSGNTIYYADSVKGRFTISRDNAKNSLYLQMNNLRAEDTAFYYCAANHGDNLFWYFDLWGRGTLVTVSS VL: DIQLIQSPSFLSASVGDRVTITCRASQGISSYLAWYQQKLGKAPKLLMYAASTLQSGVPSRFSGSGSGTEFTLTISSLQPEDFATYYCQQLNGYPPTFGQGTKLEIK	binds	binds
5.6.c3151 (antibody, V domains shown) VH: EVQLVESGGGVVQPGGSLRLSCAASGFDFDDYPMNWVRQAPGKGLELVFLISGDGGSTYSADSVKGRFTISRDNSKNSLYLQMNSLRTEDTALYYCAKDAVDNSGLYYYGMDVWGQGTTVIVSS VL: DIQMTQSPSSVSASVGDRVTINCRASQGISGWLAWYQQKPGKAPKLLIYAASSLQSGVPSRFSGSGSGTDFTLAISSLQPEDLATYYCQQTHSFPFTFGPGTKVGIK	binds	binds
5.6.c3225 (antibody, V domains shown) VH: EVQLVESGGGLVKPGGSLRLSCAASGFTFSSYTMNWVRQAPGKGLEWVSFISSTSRYIHYADSVKGRFTISRDNAKNSLFLQINSLRDEDTAVYFCARESVDDTSMLYYGLDVWGQGTTVTVSS VL: DIQMTQSPSSLSASVGGRVTITCRASQSISSSLSWYQQKPGKAPKFLIYGASTLESGVPSRFSGSGSGTDFTLTISSLQPEDFATYFCQQSHSLPWTFGQGTKVEIK	binds	binds
5.6.c3197 (antibody, V domains shown) VH: QVQVVESGGGVVQPGKSLRLSCAASGFTFSSYGMHWVRQAPGKGLEWVAFIAYDGSNEYYADSVKGRFTISRDNSKITLYLQMNSLRAEDTAMYYCAKEGAGHDALYYYGMDVWGQGTTVTVSS VL: DIQMTQSPSSVSASVGDRVTITCRASQGISFWLAWYQQKPGKAPELLISAASSLQSGVPSRFSGSGSGTDFTLTISSLQPEDFATYYCLQAHSFPYTFGQGTKLEIK	binds	binds
5.6.c3360 (antibody, V domains shown) VH: EVQVVESGGGLVKPGGSLRLSCAASGFSFSIYSMNWVRQAPGKGLEWVSSITGSSSYTNYAGSVKGRFTISRDNAKNSLYLQMNSLRADDTAVYYCARDGAVDTDIYYYGMDVWGQGTTVTVSS VL: DIQMTQSPSFVSASIGDRVTITCRASQDISSWLAWYQQKPGKAPTLLIYATSTLQSGVPSRFSGSGSGTDFTLTISSLQPEDFATYYCLQAHSFPRTFGQGTQLEIK	binds	binds
5.6.c3206 (antibody, V domains shown) VH: QVQLKESGPGLVKPSQTLSLTCSVSGGAISNGGYCYTWIRQRPGKGLESIGYMHYSGSPYYNPSLKSRVTIYVDTSKNQFSLKLSSVTAADTAVYYCARGLLWFGESPFYYFDYWGQGTLVTVSS VL: QSVLTQPPSVSGAPGQRVTISCTGSSSNIGAGYDVHWYQQLPGTAPKLLIYGNSNRPSGVPDRFSGSKSGTSASLAITGLQAEDEADYYCQSCDSSLSVVFGGGTKLTVL	binds	binds
5.6.c3133 (antibody, V domains shown) VH: QVQLVQSGAEVKKPGSSVKVSCKTSGGTLSTYPFSWVRQAPGQGLEWMGGIIPFFGTTNYAQKFQGRLTMTADKSTNTVYMELGSLRSEDTAVYYCAREHGDDIYYYFAMDVWGQGTTVTVSS VL: not shown	binds	binds
5.6.c3236 (antibody, V domains shown) VH: QVQLLESGPGLVKPSETLSLTCAVSGGSVSSNTHFWSWIRQPPGKGLEWIGYTLSSGSTAYNPSLKSRVSLSVDTSKNHFSLKLTSVTAADTAVYYCAGTVIQGVVSFDWFDPWGQGTLVTVSS VL: DIQMTQSPSSLSASVGDRVTITCRASQSINSYLNWYQQRPGKAPKLLIYTTSNLQSGVPSRFSGSGSGTDFTLTISSLQPEDFATYYCQQSYSTPLTFGGGTKVEIK	binds	binds
5.6.c3507 (antibody, V domains shown) VH: EVQLVESGGGVVQPGGSLRLSCAASGFTFDDYGMHWVRQAPGKGLEWVSFISGDGYSTYYGDSVKGRFTISRDKSKNSLYLQMNSLRTEDTAFYYCAKDGGSTLTTLLYNWFDSWGQGTLVTVSS VL: DIQMTQSPSSLSASVGDRVTITCRASQSINMYLNWYQQKPGKAPKVLIYGASSLQSGVPSRFSGSGSGTDFTLTISSLQPEDFATYYCQQSYSIPVTFGPGTKVDIK	binds	binds
